Assay results taken from publication PMC5095700.

Substrate: N[C@@H]1[C@@H](O)[C@H](O)[C@@H](CO)O[C@H]1O
Assay: purified protein
Type: biochemical, Clostridium acetobutylicum
Conditions: CoA C-terminal domain active site, Trp […], Glu […], Asp […]

B1: Glucosamine/glucosaminide N-acetyltransferase (GlmA) (Clostridium acetobutylicum ATCC 824) (protein)
chain: MEIKETYDFSSIVDLWNKNIGTVYPMNLELFKQNYINDRQRKKIMGAFNGEILIGFVIYKQWTYKSGSLKPNHKIGYINSIIVDINFRHQGIGTKLLDAAEEELINSGVKILRCGSDTYHFFPGIPLECLPSEEFFLVRGYKMQDYFYDLIGDVSKVDFKKPSIKDGFKVNVMKPEDRKGLFEFLEKSFSGRWLEEFIEFFQVGMKERDIVLIKYKTSVIGFSHIYDNKSSFIGPPIYWKALLGHNYGGLGPIGIDKTYRKQGLGRLLLYESLQILKKREVKKMVIDWTEKDIINFYGRFNFMPWKAYRKATKEVKDGKG
- Km: 210 ± 20 µM
